In US20230310628A1, “Multi-Targeted Multi-Valent Ligand Drug Particles for the Treatment and Prevention of Diseases and Conditions” (priority 2017, published 2023):
“And” between values parts separate entries of the source, which are not always exact repeats. Equal values may be shown once. Values belong to the substance of their own block, whether it stands above or below them.

Legend:
[1] = molecular target: epidermal growth factor receptor (EGFR) (human) (UniProt P00533); experiment: dose-uptake, fluorometry of lysed cells, 37 °C, 4 hr; MDA-468 cells (EGFR overexpressed, negligible HER2); 5 F5 scFv per liposome; no significant uptake compared to non-targeted liposomes
[2] = molecular target: human epidermal growth factor receptor 2 (HER2) (human) (UniProt P04626); experiment: dose-uptake, fluorometry of lysed cells; SK-BR-3 cells; 15 F5 scFv per liposome
[3] = molecular target: human epidermal growth factor receptor 2 (HER2) (human) (UniProt P04626); experiment: dose-uptake, fluorometry of lysed cells, 37 °C, 4 hr; BT-474 cells; 15 F5 scFv per liposome
[4] = molecular target: human epidermal growth factor receptor 2 (HER2) (human) (UniProt P04626); experiment: dose-uptake, fluorometry of lysed cells, 37 °C, 4 hr; SK-BR-3 cells; plateau at ˜200 µM PL
[5] = molecular target: human epidermal growth factor receptor 2 (HER2) (human) (UniProt P04626); experiment: dose-uptake, fluorometry of lysed cells, 37 °C, 4 hr; BT-474 cells; 10 F5 scFv per liposome
[6] = molecular target: human epidermal growth factor receptor 2 (HER2) (human) (UniProt P04626); experiment: dose-uptake, fluorometry of lysed cells, 37 °C, 4 hr; MKN-7 cells
[7] = molecular target: human epidermal growth factor receptor 2 (HER2) (human) (UniProt P04626); experiment: dose-uptake, fluorometry of lysed cells, 37 °C, 4 hr; MKN-7 cells; 10 F5 scFv per liposome
[8] = molecular target: human epidermal growth factor receptor 2 (HER2) (human) (UniProt P04626); experiment: flow cytometry (MFI) of DiD-labelled liposomes, 75 µM PL, 37 °C, 4 hr; MKN-7 cells (moderate HER2 and EGFR)
[9] = molecular target: epidermal growth factor receptor (EGFR) (human) (UniProt P00533); experiment: dose-uptake, fluorometry of lysed cells, 37 °C, 4 hr; MDA-468 cells (EGFR overexpressed, negligible HER2); 10 F5 scFv per liposome; no significant uptake compared to non-targeted liposomes
[10] = molecular target: human epidermal growth factor receptor 2 (HER2) (human) (UniProt P04626); experiment: flow cytometry (MFI) of DiD-labelled liposomes, 75 µM PL, 37 °C, 4 hr; BT-474 cells; mono-targeted counterpart with 5 F5 scFv per liposome
[11] = molecular target: human epidermal growth factor receptor 2 (HER2) (human) (UniProt P04626); experiment: dose-uptake, fluorometry of lysed cells, 37 °C, 4 hr; MKN-7 cells; 15 F5 scFv per liposome
[12] = molecular target: epidermal growth factor receptor (EGFR) (human) (UniProt P00533); experiment: dose-uptake, fluorometry of lysed cells, 37 °C, 4 hr; MDA-468 cells (EGFR overexpressed, negligible HER2); 15 F5 scFv per liposome; no significant uptake compared to non-targeted liposomes
[13] = molecular target: human epidermal growth factor receptor 2 (HER2) (human) (UniProt P04626); experiment: dose-uptake, fluorometry of lysed cells; SK-BR-3 cells; 10 F5 scFv per liposome
[14] = molecular target: human epidermal growth factor receptor 2 (HER2) (human) (UniProt P04626); experiment: dose-uptake, fluorometry of lysed cells, 37 °C, 4 hr; BT-474 cells; 5 F5 scFv per liposome
[15] = molecular target: human epidermal growth factor receptor 2 (HER2) (human) (UniProt P04626); experiment: dose-uptake, fluorometry of lysed cells, 37 °C, 4 hr; MKN-7 cells; 5 F5 scFv per liposome
[16] = molecular target: epidermal growth factor receptor (EGFR) (human) (UniProt P00533); experiment: dose-uptake, fluorometry of lysed cells, 37 °C, 4 hr; MDA-468 cells (EGFR overexpressed, negligible HER2); 20 cetuximab-Fab′ and 5 F5 scFv per liposome
[17] = molecular target: epidermal growth factor receptor (EGFR) (human) (UniProt P00533); experiment: dose-uptake, fluorometry of lysed cells, 37 °C, 4 hr; MDA-468 cells (EGFR overexpressed, negligible HER2); 10 cetuximab-Fab′ and 5 F5 scFv per liposome
[18] = molecular target: human epidermal growth factor receptor 2 (HER2) (human) (UniProt P04626); experiment: dose-uptake, fluorometry of lysed cells, 37 °C, 4 hr; SK-BR-3 cells (HER2 overexpressed, negligible EGFR)
[19] = molecular target: epidermal growth factor receptor (EGFR) (human) (UniProt P00533); experiment: flow cytometry (MFI) of DiD-labelled liposomes, 75 µM PL, 37 °C, 4 hr; MDA-468 cells (EGFR overexpressed, negligible HER2)
[20] = molecular target: epidermal growth factor receptor (EGFR) (human) (UniProt P00533); experiment: dose-uptake, fluorometry of lysed cells, 37 °C, 4 hr; MDA-468 cells (EGFR overexpressed, negligible HER2); 20 cetuximab-Fab′ and 15 F5 scFv per liposome
[21] = molecular target: epidermal growth factor receptor (EGFR) (human) (UniProt P00533); experiment: dose-uptake, fluorometry of lysed cells, 37 °C, 4 hr; MDA-468 cells (EGFR overexpressed, negligible HER2); 10 cetuximab-Fab′ and 10 F5 scFv per liposome
[22] = molecular target: epidermal growth factor receptor (EGFR) (human) (UniProt P00533); experiment: dose-uptake, fluorometry of lysed cells, 37 °C, 4 hr; MDA-468 cells (EGFR overexpressed, negligible HER2); 20 cetuximab-Fab′ and 10 F5 scFv per liposome

LS/Cell Max (liposomes per cell) (liposomes/cell) [1]: 5300
observed cellular uptake (liposomes per cell) (liposomes/cell) [2]: 230000
LS/Cell Max (liposomes per cell) (liposomes/cell) [3]: 68000
F5 scFv per cell at the plateau [4]: 3e+06 ligands/cell
liposomes per cell at the plateau (liposomes/cell) [4]: 200000 and 300000
LS/Cell Max (liposomes per cell) (liposomes/cell) [5]: 72000
liposomes per cell (liposomes/cell) [6]: < 20000
LS/Cell Max (liposomes per cell) (liposomes/cell) [7]: 4900
fold binding over non-targeted liposomes (NT) [8]: 300 fold
LS/Cell Max (liposomes per cell) (liposomes/cell) [9]: 1100
fold binding over non-targeted liposomes (NT) [10]: 200 fold
LS/Cell Max (liposomes per cell) (liposomes/cell) [11]: 4100
LS/Cell Max (liposomes per cell) (liposomes/cell) [12]: 8000
observed cellular uptake (liposomes per cell) (liposomes/cell) [13]: 230000
LS/Cell Max (liposomes per cell) (liposomes/cell) [14]: 40000
LS/Cell Max (liposomes per cell) (liposomes/cell) [15]: 8100
Substance: anti-HER2 F5 scFv-conjugated immunoliposomes

Anti-EGFR Lg/Cell Max (ligands per cell) [16]: 1.2e+06 ligands/cell
LS/Cell Max (liposomes per cell) (liposomes/cell) [16]: 61000
Anti-EGFR Lg/Cell Max (ligands per cell) [17]: 270000 ligands/cell
LS/Cell Max (liposomes per cell) (liposomes/cell) [17]: 27000
F5 scFv per cell [18]: 2e+06 ligands/cell and 3e+06 ligands/cell
fold binding over non-targeted liposomes (NT) [19]: 500 fold
Anti-EGFR Lg/Cell Max (ligands per cell) [20]: 1.2e+06 ligands/cell
LS/Cell Max (liposomes per cell) (liposomes/cell) [20]: 59000
Anti-EGFR Lg/Cell Max (ligands per cell) [21]: 220000 ligands/cell
LS/Cell Max (liposomes per cell) (liposomes/cell) [21]: 22000
Anti-EGFR Lg/Cell Max (ligands per cell) [22]: 1.1e+06 ligands/cell
LS/Cell Max (liposomes per cell) (liposomes/cell) [22]: 53000
Substance: anti-HER2 and anti-EGFR dual-targeted immunoliposomes
